Consider nine molecules from US9944954B2, “Glycerol 3-phosphate dehydrogenase for butanol production” (BUTAMAX ADVANCED BIOFUELS LLC, priority 2013, dated 2018).

Series [1] deals with Saccharomyces cerevisiae GPD1. The note with it: read-out: NADH KM; Albertyn et al. 1992; cited from earlier work.
The subject of a further series is Leishmania mexicana GPD. As to conditions: read-out: NADH KM; Marche et al, 2000; cited from earlier work.
The subject of the next series is Jaculus orientalis GPD. As to conditions: read-out: NADH KM; Berrada et al, 2002; cited from earlier work.
In another series the test system is Dunaliella viridis GPDH1. The note with it: read-out: NADH KM; He et al, 2009; cited from earlier work.
The test system of a further series is Dunaliella viridis GPDH2. The note with it: read-out: NADH KM; He et al, 2009; cited from earlier work.
The subject of series [2] is Drosophila melanogaster GPDH1 (flight muscle). As to conditions: read-out: NADH KM; Niesel et al, 1982; cited from earlier work.
Series [3] relates to E. coli gpsA (glycerol-3-phosphate dehydrogenase). The note with it: cited from earlier work; for affinity for the cofactors NADH and NADPH: Edgar and Bell, JBC 255:3492-7 (1980).
The subject of series [4] is Saccharomyces phosphatase GPP1. The note with it: Norbeck, JBC 271:13875-81 (1996); cited from earlier work.
For series [5], the system named is Saccharomyces phosphatase GPP2. The note with it: Norbeck, JBC 271:13875-81 (1996); cited from earlier work.
The subject of series [6] is NC(=O)C1=CN([C@@H]2O[C@H](COP(=O)(O)OP(=O)(O)OC[C@H]3O[C@@H](n4cnc5c(N)ncnc54)[C@H](O)[C@@H]3O)[C@@H](O)[C@H]2O)C=CC1. In words: cells, lysate or membranes named. The note with it: pH 6.8; 30.0 °C.
In series [7] the test system is NC(=O)C1=CN([C@@H]2O[C@H](COP(=O)(O)OP(=O)(O)OC[C@H]3O[C@@H](n4cnc5c(N)ncnc54)[C@H](OP(=O)(O)O)[C@@H]3O)[C@@H](O)[C@H]2O)C=CC1. In words: cells, lysate or membranes named. The note with it: pH 6.8; 30.0 °C.
Substrate in series [8]: NC(=O)C1=CN([C@@H]2O[C@H](COP(=O)(O)OP(=O)(O)OC[C@H]3O[C@@H](n4cnc5c(N)ncnc54)[C@H](O)[C@@H]3O)[C@@H](O)[C@H]2O)C=CC1
In words: purified protein, by the assay type. As to conditions: pH 6.8, 30.0 °C.

Substrate in series [9]: NC(=O)C1=CN([C@@H]2O[C@H](COP(=O)(O)OP(=O)(O)OC[C@H]3O[C@@H](n4cnc5c(N)ncnc54)[C@H](O)[C@@H]3O)[C@@H](O)[C@H]2O)C=CC1
Briefly: cells, lysate or membranes named. As to conditions: pH 6.8; 30.0 °C. The source holds these as a separate data set.

Substrate in series [10]: NC(=O)C1=CN([C@@H]2O[C@H](COP(=O)(O)OP(=O)(O)OC[C@H]3O[C@@H](n4cnc5c(N)ncnc54)[C@H](OP(=O)(O)O)[C@@H]3O)[C@@H](O)[C@H]2O)C=CC1
In words: cells, lysate or membranes named. As to conditions: pH 6.8; 30.0 °C. The source holds these as a separate data set.

Substrate in series [11]: NC(=O)C1=CN([C@@H]2O[C@H](COP(=O)(O)OP(=O)(O)OC[C@H]3O[C@@H](n4cnc5c(N)ncnc54)[C@H](OP(=O)(O)O)[C@@H]3O)[C@@H](O)[C@H]2O)C=CC1
In words: purified protein, by the assay type. As to conditions: pH 6.8; 30.0 °C.

Substrate in series [12]: NC(=O)C1=CN([C@@H]2O[C@H](COP(=O)(O)OP(=O)(O)OC[C@H]3O[C@@H](n4cnc5c(N)ncnc54)[C@H](O)[C@@H]3O)[C@@H](O)[C@H]2O)C=CC1
Briefly: cells, lysate or membranes named. Format: biochemical, Saccharomyces cerevisiae. As to conditions: E. coli expressed, 30.0 °C. How it is done:
Glycerol-3-phosphate production was measured by LC/MS.
The data used in this section are provided in Table 11, and includes measurements of the metabolic products and the in vitro measurements of GPD as described above.

Where [13] appears, read: other: GPD1 WT_y, crude cell extract, pH 6.8, 1 mM dihydroxyacetone phosphate.

The Km is the concentration of substrate that gives half-maximal velocity. With `NC(=O)C1=CN([C@@H]2O[C@H](COP(=O)(O)OP(=O)(O)OC[C@H]3O[C@@H](n4cnc5c(N)ncnc54)[C@H](O)[C@@H]3O)[C@@H](O)[C@H]2O)C=CC1` [NADH, reduced nicotinamide adenine dinucleotide], the Km in [1] is 23 µM; with Leishmania mexicana GPD, 24 µM; in the series on Jaculus orientalis GPD it was 32 µM; in the series with Dunaliella viridis GPDH1 it was 58.9 µM; with Dunaliella viridis GPDH2, 59.2 µM; in series [2], 78 µM. For the same molecule, the “affinity for the cofactors NADH and NADPH” value in series [3] is “substantially the same affinity”.

Regarding `NC(=O)C1=CN([C@@H]2O[C@H](COP(=O)(O)OP(=O)(O)OC[C@H]3O[C@@H](n4cnc5c(N)ncnc54)[C@H](OP(=O)(O)O)[C@@H]3O)[C@@H](O)[C@H]2O)C=CC1` [NADPH, reduced nicotinamide adenine dinucleotide phosphate], the “affinity for the cofactors NADH and NADPH” value in series [3] is “substantially the same affinity”.

In the case of `O=P(O)(O)OC[C@H](O)CO` [glycerol-3-phosphate], the values for the Michaelis constant in series [4] and in series [5] were 3.1 and 3.9, respectively. Besides, the “product inhibition by glycerol-3-phosphate” value in series [3] is “product inhibited”.

As to “Rickettsia prowazekii str. BuV67-CWPP GPD (gene SEQ ID NO: 16; SEQ ID NO: 192) (Rickettsia prowazekii str. Madrid E)”, the values for the Km in [6] and in [7] were 664 µM and 4 µM, respectively.

B1: Drosophila melanogaster glycerol 3 phosphate dehydrogenase, isoform C (gi: 22945708) (Drosophila melanogaster) (protein)
chain: MADKVNVCIVGSGNWGSAIAKIVGANAAALPEFEERVTMFVYEELIDGKKLTEIINETHENVKYLKGHKLPPNVVAVPDLVEAAKNADILIFVVPHQFIPNFCKQLLGKIKPNAIAISLIKGFDKAEGGGIDLISHIITRHLKIPCAVLMGANLANEVAEGNFCETTIGCTDKKYGKVLRDLFQANHFRVVVVDDADAVEVCGALKNIVACGAGFVDGLKLGDNTKAAVIRLGLMEMIRFVDVFYPGSKLSTFFESCGVADLITTCYGGRNRRVSEAFVTSGKTIEELEKEMLNGQKLQGPPTAEEVNYMLKNKGLEDKFPLFTAIHKICTNQLKPNDLIDCIRNHPEHMDTSIMPSPKL
Take B1: in series [8] (other: one experiment, in parallel with Saccharomyces GPD1, E. coli expressed), the Km was 5 µM.

B2: Archaeoglobus fulgidus DSM 4304 GPD (gene SEQ ID NO: 14) (Archaeoglobus fulgidus DSM 4304) (protein)
chain: MIVSILGAGAMGSALSVPLVDNGNEVRIWGTEFDTEILKSISAGREHPRLGVKLNGVEIFWPEQLEKCLENAEVVLLGVSTDGVLPVMSRILPYLKDQYIVLISKGLIDFDNSVLTVPEAVWRLKHDLRERTVAITGPAIAREVAKRMPTTVVFSSPSESSANKMKEIFETEYFGVEVTTDIIGTEITSALKNVYSIAIAWIRGYESRKNVEMSNAKGVIATRAINEMAELIEILGGDRETAFGLSGFGDLIATFRGGRNGMLGELLGKGLSIDEAMEELERRGVGVVEGYKTAEKAYRLSSKINADTKLLDSIYRVLYEGLKVEEVLFELATFK
As for B2, the Km was 5 µM in [9] and 7 µM in [10].

B3: Kangiella koreensis GPD (SEQ ID NO: 18; SEQ ID NO: 194) (Kangiella koreensis DSM 16069) (protein)
chain: MSAQLSFAVLGAGSYGTALAVLLARNGHSVQLWARNSQHVVEMQQAKQNTKYLPDVAFPDNLSVTDQIDVALKHHPIILVAVPSHAFRDTLYLIKPLVNQDSKLVWASKGLDPDSGDLLGNVLKNILGDNMPHAILSGPTFAKEMAIGMPTAITLAANNDDFAEQLALALHNERFRVYTSDDIVGVQVGGAVKNVVAIGAGIADGLGYGANARTALITRGLAEMTRLGVAAGGKQETFNGMAGMGDLVLTCTDNQSRNRRFGLALGKGANRDEAEHAIGQVVEGVRNAKEVKMLAERLGVEMPISDAIYRIIYEGVDARQAAHELLTRDLKSEG
In the case of B3, the values for the Km in series [8] and in [11] were 2018 µM and 1 µM, respectively.

B4: Beggiatoa alba GPD (SEQ ID NO: 17; SEQ ID NO: 193) (Beggiatoa alba B18LD) (protein)
chain: MLSPSALLVLGAGSWGTALALALARRQYPIYLWGKDPAHVHTLQIQRCNQRFLPNAVFPDNLYAITDFVTLMPIVEDIIIVVPSHGFRETLKKIKPYITKNHRLCWATKGLEYQTGLLLHEVARAELGDNIPLAVLSGPSFAGEVAAALPTAVTIAAQDIENAHHVAQLFHQASFRAYTSNDMVGVQIGGAVKNVIAIAAGIADGLKMGANTRAALITRGLSEIVRLGIALGGQRETFMGLAGLGDLVLTCTDNQSRNRRFGYALAQGISLEAAQAQVGQVVEGIHAATITHQLAQQHGVEMPIVNHVNQVLTGQSTPLEAAQALLAREPKPEML
For B4, the Km in [8] is 101 µM; in series [11], 6 µM.

B5: Saccharomyces cerevisiae GPD1 (glycerol-3-phosphate dehydrogenase), wild type, SEQ ID NO: 195 (Saccharomyces cerevisiae S288C) (protein)
chain: MSAAADRLNLTSGHLNAGRKRSSSSVSLKAAEKPFKVTVIGSGNWGTTIAKVVAENCKGYPEVFAPIVQMWVFEEEINGEKLTEIINTRHQNVKYLPGITLPDNLVANPDLIDSVKDVDIIVFNIPHQFLPRICSQLKGHVDSHVRAISCLKGFEVGAKGVQLLSSYITEELGIQCGALSGANIATEVAQEHWSETTVAYHIPKDFRGEGKDVDHKVLKALFHRPYFHVSVIEDVAGISICGALKNVVALGCGFVEGLGWGNNASAAIQRVGLGEIIRFGQMFFPESREETYYQESAGVADLITTCAGGRNVKVARLMATSGKDAWECEKELLNGQSAQGLITCKEVHEWLETCGSVEDFPLFEAVYQIVYNNYPMKNLPDMIEELDLHED
notes: also native or codon-optimized GPD1 in yeast PNY2145-derived strains (T12); full length 391 aa
Broadly, the Vmax is the top rate of the reaction or transport when substrate is in excess. For B5, in [12] (setting [13]), the Km stood at 13 µM and the Vmax is 9000 µM/min. Also, in series [12] (other: one experiment, in parallel with Drosophila isoform C, pH 6.8), the Km was 5 µM.
